From patent publication US20230331798A1 (JECHO LABORATORIES, published 2023)

How the values were obtained:
[1] = target: T1, EPO receptor on TF-1 cells (human, UniProt P19235 25-508); experiment: cell-based or functional assay
T1 sequence (looked up): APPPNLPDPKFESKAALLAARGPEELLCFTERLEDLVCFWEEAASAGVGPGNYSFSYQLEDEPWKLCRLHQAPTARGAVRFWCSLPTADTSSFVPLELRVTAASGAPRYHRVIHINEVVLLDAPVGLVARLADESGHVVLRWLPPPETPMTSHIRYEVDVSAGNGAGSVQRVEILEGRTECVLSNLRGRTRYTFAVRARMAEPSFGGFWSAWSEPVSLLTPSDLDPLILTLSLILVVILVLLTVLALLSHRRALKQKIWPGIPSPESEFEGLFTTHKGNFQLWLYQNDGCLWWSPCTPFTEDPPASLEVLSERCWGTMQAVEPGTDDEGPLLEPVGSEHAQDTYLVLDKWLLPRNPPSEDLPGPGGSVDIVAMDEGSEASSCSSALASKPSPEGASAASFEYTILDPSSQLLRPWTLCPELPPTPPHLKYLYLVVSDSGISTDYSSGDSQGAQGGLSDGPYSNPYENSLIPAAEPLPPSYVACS

[2] = target: EPO receptor (Sinobiological, 10707-H08H) (UniProt P19235); experiment: SPR, Biacore 8K, 25 C

EC50 (ng/ml), TF-1 cell proliferation (MTS, absorbance at 490 nM) [1]: 11.4 ng/mL
Kd [2]: 8.35 nM
Substance: Darbepoetin (Darbe, lot #1078765A) (ligand)
